The numbers were not newly measured in paper PMC7830187, which cites them from elsewhere.

As a reminder, the Kd is the constant that tells how readily two partners part at equilibrium.

The target of this data set is synthetic peptide.

intersectin-1 SH3 (from UniProt Q15811): the Kd is 50 µM.
